Measurements published in patent publication CN113637074A (SHANGHAI HUAIYUE BIOTECHNOLOGY CO LTD, dated 2021).

Assays:
带His标签的NKp44蛋白 = biological target: T1, 带His标签的NKp44蛋白 (human, UniProt O95944 22-190, limits assumed); assay: ELISA, His-tagged protein coated at 1 μg/ml, anti-human IgG Fc-HRP
T1 construct: also called 人NKp44; not shown: His tag
T1 sequence (looked up): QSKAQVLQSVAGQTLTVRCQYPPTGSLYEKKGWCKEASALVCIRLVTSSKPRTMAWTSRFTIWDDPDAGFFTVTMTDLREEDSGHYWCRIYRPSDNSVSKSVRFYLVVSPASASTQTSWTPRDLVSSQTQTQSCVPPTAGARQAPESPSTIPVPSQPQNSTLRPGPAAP

带His标签的NKp30蛋白 = biological target: T2, 带His标签的NKp30蛋白 (human, UniProt O14931 19-138, limits assumed); assay: as above
T2 construct: also called 人NKp30; not shown: His tag
T2 sequence (looked up): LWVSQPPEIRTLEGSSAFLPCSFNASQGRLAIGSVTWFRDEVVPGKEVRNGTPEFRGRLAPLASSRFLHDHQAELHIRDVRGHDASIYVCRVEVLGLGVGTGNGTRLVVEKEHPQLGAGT

B1: NKp46-1 (antibody, V domains shown)
VH: QVQLVQSGAEVKKPGSSVKVSCKASGGTFSNYGISWVRQAPGQGLEWIGRIIPYFGITNYAQKFQGRVTITADKSTSTAYMELSSLRSEDTAVYYCADNHLLRPGQNYYPWDYWGQGTTVTVSS
VL: DIQMTQSPSSLSASVGDRVTITCRASQGISNALAWYQQKPGKAPKLLIYAASRLESGVPSRFSGSGSGTDFTLTISSLQPEDFATYYCQQHYSTPPTFGQGTKVEIK
notes: Lead antibody from a human common light chain phage library; also called Ab-1; 孔A5
- binding result (带His标签的NKp44蛋白): no binding (tested: 10μg/ml)
- binding result (带His标签的NKp30蛋白): no binding (tested: 10μg/ml)
